The target in this experiment is Gal4-DBD/CREM (UniProt P04386). Description: cell-based or functional assay.

Turning to ACT/Gal4-AD (from UniProt Q9WTX7 1-284), the activity in yeast (β-galactosidase reporter), compared with ACT (fold (against ACT)) came out at 2.

The record behind these values is patent publication US6660841.
